# Measurements: patent publication US20260217793A1 (Chugai, published 2026)
# Residue numbers refer to the chain shown, from its start.
# T1: FcγRIIb extracellular domain with C-terminal His tag (human, UniProt P31994 43-217)
# T1 sequence (looked up): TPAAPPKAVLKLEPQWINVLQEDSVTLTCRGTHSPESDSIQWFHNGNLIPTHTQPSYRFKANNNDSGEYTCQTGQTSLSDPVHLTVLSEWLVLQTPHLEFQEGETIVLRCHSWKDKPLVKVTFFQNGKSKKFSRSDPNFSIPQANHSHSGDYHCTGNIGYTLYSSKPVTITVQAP
# T2: human FcγRIIa type R (Arg131) extracellular domain with C-terminal His tag (human, UniProt P12318 34-217)
# T2 sequence (looked up): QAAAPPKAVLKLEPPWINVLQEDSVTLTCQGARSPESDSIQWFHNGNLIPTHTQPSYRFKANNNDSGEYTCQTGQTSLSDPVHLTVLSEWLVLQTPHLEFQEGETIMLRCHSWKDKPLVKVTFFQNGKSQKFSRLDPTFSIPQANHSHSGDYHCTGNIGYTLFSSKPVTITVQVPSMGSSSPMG
# T3: human FcγRIIb extracellular domain with C-terminal His tag (human, UniProt P31994 43-217)
# T3 sequence (looked up): T1 sequence (looked up)
# T4: human FcγRIIa type H (His131) extracellular domain with C-terminal His tag (human, UniProt P12318 34-217)
# T4 sequence (looked up): T2 sequence (looked up) with R134H
# T5: FcγRIIa type R extracellular domain with C-terminal His tag (human, UniProt P12318 34-217)
# T5 sequence (looked up): T2 sequence (looked up)
# T6: FcγRIIa type H extracellular domain with C-terminal His tag (human, UniProt P12318 34-217)
# T6 sequence (looked up): T2 sequence (looked up) with R134H
# B1: IL6R-BP479/IL6R-L (antibody, human IgG1, kappa)
# heavy: QVQLQESGPGLVKPSETLSLTCAVSGHSISHDHAWSWVRQPPGEGLEWIGFISYSGITNYNPSLQGRVTISRDNSKNTLYLQMNSLRAEDTAVYYCARSLARTTAMDYWGEGTLVTVSSASTKGPSVFPLAPSSKSTSGGTAALGCLVKDYFPEPVTVSWNSGALTSGVHTFPAVLQSSGLYSLSSVVTVPSSSLGTQTYICNVNHKPSNTKVDKKVEPKSCDKTHTCPPCPAPDLLGDDSVFLFPPKPKDTLMISRTPEVTCVVIDLAEEDGEVKFNWYVDGVEVHNAKTKPREEQYNSTYRVVSVLTVLHQDWLNGKEYKCKVSNKALPAPIEKTISKAKGQPREPQVYTLPPSRDELTKNQVSLTCLVKGFYPSDIAVEWESNGQPENNYKTTPPVLDSDGSFFLYSKLTVDKSRWQQGNVFSCSVMHEALHNHYTQESLSLSP
# light: not shown
# B2: IL6R-BP499/IL6R-L (antibody, human IgG1, kappa)
# heavy: B1 heavy with L268V, Y298D, A332R, P398L
# light: not shown
# B3: IL6R-BP481/IL6R-L (antibody, human IgG1, kappa)
# heavy: B1 heavy with L268V
# light: not shown
# B4: IL6R-BP484/IL6R-L (antibody, human IgG1, kappa)
# heavy: B1 heavy with I266V, L268V, E271D
# light: not shown
# B5: IL6R-BP549/IL6R-L (antibody, human IgG1, kappa)
# heavy: B1 heavy with D235E, I266V, L268V, A269G, A332R
# light: not shown
# B6: IL6R-BP564/IL6R-L (antibody, human IgG1, kappa)
# heavy: B1 heavy with D235E, I266V, L268V, A269S, E274D, Y298D, A332R
# light: not shown
# B7: IL6R-BP559/IL6R-L (antibody, human IgG1, kappa)
# heavy: B1 heavy with D235E, D239G, L268V, E274D, Y298D
# light: not shown
# B8: IL6R-BP560/IL6R-L (antibody, human IgG1, kappa)
# heavy: B1 heavy with D235E, D239G, I266V, L268V, A269G, Y298D, A332R
# light: not shown
# B9: IL6R-BP562/IL6R-L (antibody, human IgG1, kappa)
# heavy: B1 heavy with D235E, I266V, L268V, A269S, E270D, E274D, Y298D, A332R
# light: not shown
# B10: IL6R-BP557/IL6R-L (antibody, human IgG1, kappa)
# heavy: B1 heavy with D235E, I266V, L268V, A269G, E270D, Y298D, A332R
# light: not shown
# B11: IL6R-BP230/IL6R-L (antibody, human IgG1, kappa)
# heavy: B1 heavy with I266V, L268V, A269S, E270D, Y298D, A332R
# light: not shown
# B12: IL6R-BP547/IL6R-L (antibody, human IgG1, kappa)
# heavy: B1 heavy with I266V, L268V, A269S, E270D, Y298D, A332R, K411R
# light: not shown
# B13: IL6R-BP545/IL6R-L (antibody, human IgG1, kappa)
# heavy: B1 heavy with I266V, L268V, A269S, E270D, Y298D, A332R, D358E
# light: not shown
# B14: IL6R-BP542/IL6R-L (antibody, human IgG1, kappa)
# heavy: B1 heavy with I266V, L268V, A269S, E270D, Y298F, A332R
# light: not shown
# Target: T1, FcγRIIb extracellular domain with …
# Experiment: ratio of SPR KDs, FcγRIIaR over FcγRIIb, same variant
row,KD (IIaR)/KD (IIb),Binder
1,16.1,B1
2,33.8,B2
3,20.5,B3
4,17.1,B4

# Target: T2, human FcγRIIa type R (Arg131) …
# Experiment: SPR
row,KD (IIaR) of parent polypeptide/KD (IIaR) of altered polypeptide,Binder
1,1.9,B5
2,1.9,B6
3,0.7,B7
4,0.3,B8
5,1.6,B9

# Target: T3, human FcγRIIb extracellular domain with …
# Experiment: SPR
row,KD (IIb) of parent polypeptide/KD (IIb) of altered polypeptide,Binder
1,196,B5
2,141,B6
3,110,B7
4,16.8,B8
5,131,B9

# Target: human FcγRIIIa type V (Val158) extracellular domain with C-terminal His tag (human, UniProt P08637 17-208)
# Experiment: SPR
# human FcγRIIIa type V (Val158) extracellular domain with C-terminal His tag, sequence (P08637 17-208 F176V): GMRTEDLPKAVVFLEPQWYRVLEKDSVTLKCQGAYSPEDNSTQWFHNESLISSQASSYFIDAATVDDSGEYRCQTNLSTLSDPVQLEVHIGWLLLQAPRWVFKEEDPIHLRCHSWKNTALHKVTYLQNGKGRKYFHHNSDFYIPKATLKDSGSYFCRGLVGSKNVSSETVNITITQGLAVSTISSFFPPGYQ
row,Kd [µM],Binder
1,24,B5
2,49,B6
3,44,B7
4,41,B8
5,29,B10
6,53,B9

# Target: T4, human FcγRIIa type H (His131) …
# Experiment: SPR
row,Kd [µM],Binder
1,11,B5
2,10,B6
3,20,B7
4,31,B8
5,15,B10
6,11,B9

# Target: T1, FcγRIIb extracellular domain with …
# Experiment: ratio of SPR KDs, FcγRIIaH over FcγRIIb, same variant
row,KD (IIaH)/KD (IIb),Binder
1,268,B1
2,685,B2
3,350,B3
4,241,B4

# Target: T1, FcγRIIb extracellular domain with …
# Experiment: ratio of SPR KDs vs IL6R-B3/IL6R-L
row,KD (IIb) of parent polypeptide/KD (IIb) of altered polypeptide,Binder
1,55.5,B1
2,2120,B2
3,160,B3
4,67.8,B4

# Target: T5, FcγRIIa type R extracellular domain …
# Experiment: ratio of SPR KDs vs IL6R-B3/IL6R-L
row,KD (IIaR) of parent polypeptide/KD (IIaR) of altered polypeptide,Binder
1,1.2,B1
2,22.3,B2
3,2.8,B3
4,1.4,B4

# Target: FcγRIIIa type V extracellular domain with C-terminal His tag (human, UniProt P08637 17-208)
# Experiment: SPR
# FcγRIIIa type V extracellular domain with C-terminal His tag, sequence (P08637 17-208 F176V): as above
row,Kd [µM],Binder
1,39,B11
2,35,B12
3,45,B13
4,43,B14

# Target: T6, FcγRIIa type H extracellular domain …
# Experiment: SPR
row,Kd [µM],Binder
1,9.7,B11
2,7.5,B12
3,9.1,B13
4,9.7,B14
